The target in experiment [1] is His6-ChpT (Caulobacter crescentus). The experiment can be described thus: SEC. (In gel filtration, larger molecules generally elute earlier.)
Experiment [2] deals with His6-ChpT-A41R (Caulobacter crescentus). Briefly: SEC.
In experiment [3] the target is His6-ChpT-D47A (Caulobacter crescentus). The experiment can be described thus: SEC.
For experiment [4], the target named is His6-ChpT-D60A (Caulobacter crescentus). The experiment can be described thus: SEC.
The target in experiment [5] is His6-ChpT-G45R (Caulobacter crescentus). The experiment can be described thus: SEC.
Experiment [6] addresses His6-ChpT-L48M (Caulobacter crescentus). Briefly: SEC.
The target in experiment [7] is His6-ChpT-L64D (Caulobacter crescentus). The experiment can be described thus: SEC.
Experiment [8] addresses His6-ChpT-N63R (Caulobacter crescentus). Briefly: SEC.
The target of experiment [9] is His6-ChpT-S40V (Caulobacter crescentus). Briefly: SEC.
Experiment [10] has as its target His6-ChpT-S44Y (Caulobacter crescentus). The experiment can be described thus: SEC.
Experiment [11] has as its target His6-ChpT-A41R (Caulobacter crescentus). The experiment can be described thus: SPR. A general note: Surface plasmon resonance follows binding to a sensor surface in real time, without labels.

One may read the stoichiometry N as the number of molecules, sites or subunits per partner or assembly. Take His6-ChpT (natural protein): in [1], the stoichiometry N was 2. Turning to His6-ChpT-A41R (natural protein), the stoichiometry N in [2] worked out at 2. Take His6-ChpT-D47A (natural protein): the stoichiometry N in experiment [3] amounted to 2. His6-ChpT-D60A (natural protein) yielded a stoichiometry N in experiment [4] of 2. His6-ChpT-G45R (natural protein) yielded a stoichiometry N in experiment [5] of 2.

For the molecule His6-ChpT-L48M (natural protein), the stoichiometry N in experiment [6] was 2. The molecule His6-ChpT-L64D (natural protein) returned a stoichiometry N in [7] of 2. His6-ChpT-N63R (natural protein) registered a stoichiometry N in [8] of 2. In [9], His6-ChpT-S40V (natural protein) had a stoichiometry N of 2. His6-ChpT-S44Y (natural protein) returned a stoichiometry N in experiment [10] of 2.

B1: CckA receiver domain (CckA-RD, amino acids 571–691) (domain or fragment)
chain: GRILFVEDEDAVRSVAARLLRARGYEVLEAADGEEALIIAEENAGTIDLLISDVIMPGIDGPTLLKKARGYLGTAPVMFISGYAEAEFSDLLEGETGVTFLPKPIDIKTLAERVKQQLQAA
For orientation: Kd means the constant that tells how readily two partners part at equilibrium. Read a high Kd as weaker binding. With B1, the Kd in experiment [11] is 397 µM.

(Values after PMC3787845.)
